Assay [1] concerns the target T1, human SIRPA on human macrophages (primary monocyte-derived macrophages; U937 line) (human, UniProt P78324 31-504). As to the kind of experiment: cell-based or functional assay.
For assay [2], the target named is T1, human SIRPA on human macrophages …. As to the kind of experiment: cell-based or functional assay. The source holds these as a separate data set.
Assay [3] concerns the target T2, soluble human FcgR3A F158 (human, UniProt P08637 17-208).
T2 construct: also called CD16A F158
Briefly: BLI (Octet RED96), antibody captured by anti-human Fab-CH1, soluble human FcR. How it is done: (§1) FcR affinity measurements for anti-SIRPA antibody Fc variants were obtained using bio-layer interferometry (BLI) on a Pall ForteBio Octet RED96 instrument. […] Single cycle kinetics were performed with 100 nM of soluble human FcRs flowed over captured antibody to record traces (300 s association time, 300 s dissociation time). Data analysis was performed using ForteBio Data Analysis Software, version 9.0. Standard kinetic buffer (PBS, 0.1% BSA, 0.02% Tween-20, pH 7.2) was used for the assay and for preparing reagents.
Background: BLI is a label-free optical method that tracks binding on a fibre tip over time.

Assay [4] addresses T3, soluble human FcgR3A V158 (human, UniProt P08637 17-208).
T3 construct: also called CD16A V158
The description is as above. How it is done:
as §1

In another assay the target is T4, soluble human FcgR1 (human, UniProt P12314 16-288).
T4 construct: also called FcγRI; CD64
Briefly: BLI (Octet RED96), antibody captured by anti-human Fab-CH1, 100 nM soluble human FcR. On the procedure:
as §1

Assay [5] addresses T5, soluble human FcgR2A H131 (human, UniProt P12318 36-218).
T5 construct: also called CD32A-H131
T5 sequence (looked up): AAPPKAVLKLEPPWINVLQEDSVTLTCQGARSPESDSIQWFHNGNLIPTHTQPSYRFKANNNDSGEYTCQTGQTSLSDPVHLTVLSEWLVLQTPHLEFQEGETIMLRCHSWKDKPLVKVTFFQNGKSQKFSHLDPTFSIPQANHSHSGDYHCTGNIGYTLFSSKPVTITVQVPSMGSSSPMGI
Described as above. How it is done: as §1

The target of assay [6] is T6, soluble human FcgR2A R131 (human, UniProt P12318 36-218).
T6 construct: also called CD32A-R131
T6 sequence (looked up): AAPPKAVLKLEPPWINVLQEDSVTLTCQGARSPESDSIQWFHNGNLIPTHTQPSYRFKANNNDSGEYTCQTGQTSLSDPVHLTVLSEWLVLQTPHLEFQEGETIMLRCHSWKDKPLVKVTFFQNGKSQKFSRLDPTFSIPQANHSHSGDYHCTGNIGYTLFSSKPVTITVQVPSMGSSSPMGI
Described as above. How it is done:
as §1

Assay [7] addresses T7, soluble human FcgR2B (human, UniProt P31994 46-217).
T7 construct: also called CD32B
T7 sequence (looked up): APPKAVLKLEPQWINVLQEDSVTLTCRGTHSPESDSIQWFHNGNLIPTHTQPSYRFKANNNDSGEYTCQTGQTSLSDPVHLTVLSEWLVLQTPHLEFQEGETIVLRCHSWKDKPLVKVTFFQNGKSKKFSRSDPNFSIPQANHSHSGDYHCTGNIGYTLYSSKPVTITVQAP
Described as above. How it is done: as §1

Assay [8] addresses T5, soluble human FcgR2A H131. Briefly: BLI (Octet RED96), antibody captured by anti-human Fab-CH1, soluble human FcR. How it is done: as §1
For assay [9], the target named is T6, soluble human FcgR2A R131. The assay is described as above. How it is done:
as §1

Assay [10] concerns the target T7, soluble human FcgR2B. The description is as above. On the procedure: as §1

T1 sequence (P78324 31-370): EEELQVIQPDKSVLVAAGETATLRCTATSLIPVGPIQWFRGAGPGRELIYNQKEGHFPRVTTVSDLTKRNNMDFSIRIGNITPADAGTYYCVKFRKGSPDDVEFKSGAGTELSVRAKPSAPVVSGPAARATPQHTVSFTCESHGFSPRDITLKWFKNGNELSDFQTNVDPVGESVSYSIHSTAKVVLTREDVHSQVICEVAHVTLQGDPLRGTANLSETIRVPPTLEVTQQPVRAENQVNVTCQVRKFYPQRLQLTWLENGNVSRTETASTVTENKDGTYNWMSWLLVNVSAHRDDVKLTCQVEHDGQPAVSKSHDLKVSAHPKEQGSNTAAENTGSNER
T3 sequence (P08637 17-208 F176V limits assumed): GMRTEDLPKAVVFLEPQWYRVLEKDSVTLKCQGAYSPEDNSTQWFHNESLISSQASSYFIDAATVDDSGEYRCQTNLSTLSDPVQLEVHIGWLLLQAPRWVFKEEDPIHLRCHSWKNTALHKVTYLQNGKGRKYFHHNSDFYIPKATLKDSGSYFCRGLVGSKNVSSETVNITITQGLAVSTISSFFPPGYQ
T2 sequence (P08637 17-208 limits assumed): as the sequence (P08637 17-208 F176V limits assumed) above, with V160F counted along it
T4 sequence (P12314 16-288 limits assumed): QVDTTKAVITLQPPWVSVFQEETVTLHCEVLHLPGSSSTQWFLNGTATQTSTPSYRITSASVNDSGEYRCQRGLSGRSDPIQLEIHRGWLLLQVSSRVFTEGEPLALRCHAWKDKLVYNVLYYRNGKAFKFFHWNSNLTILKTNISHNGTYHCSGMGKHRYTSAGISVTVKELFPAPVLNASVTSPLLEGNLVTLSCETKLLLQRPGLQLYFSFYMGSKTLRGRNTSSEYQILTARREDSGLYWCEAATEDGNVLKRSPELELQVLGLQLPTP

B1: 3F9-22 hIgG1 NSLF (antibody)
heavy: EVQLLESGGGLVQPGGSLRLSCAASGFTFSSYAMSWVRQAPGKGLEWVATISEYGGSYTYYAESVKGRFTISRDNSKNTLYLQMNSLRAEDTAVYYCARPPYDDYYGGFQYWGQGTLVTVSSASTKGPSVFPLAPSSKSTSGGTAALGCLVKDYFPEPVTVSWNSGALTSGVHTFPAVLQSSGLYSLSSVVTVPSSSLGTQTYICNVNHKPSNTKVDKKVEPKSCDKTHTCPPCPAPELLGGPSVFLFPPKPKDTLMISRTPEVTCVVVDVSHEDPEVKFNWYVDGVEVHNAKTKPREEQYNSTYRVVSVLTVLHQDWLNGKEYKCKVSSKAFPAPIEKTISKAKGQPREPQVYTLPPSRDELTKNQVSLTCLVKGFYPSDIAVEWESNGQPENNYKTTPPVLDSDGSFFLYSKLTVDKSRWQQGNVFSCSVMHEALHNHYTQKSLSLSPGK
light: DIQLTQSPSSLSASVGDRVTITCRASKSVSSGGYSYMHWYQQKPGKAPKLLIYLASNLESGVPSRFSGSGSGTDFTLTISSVQPEDFATYYCQHNRELPVTFGQGTKLEIKRTVAAPSVFIFPPSDEQLKSGTASVVCLLNNFYPREAKVQWKVDNALQSGNSQESVTEQDSKDSTYSLSSTLTLSKADYEKHKVYACEVTHQGLSSPVTKSFNRGEC
notes: also called 3F9-22 NSLF; 3F9-22NSLF
B1: the “IC50 (nM), SIRPA downregulation on human monocyte-derived macrophages” value in assay [1] amounted to 0.0451 nM. Besides, the “Max % DR, SIRPA, human monocyte-derived macrophages” value in assay [1] was 74.6%. For the same molecule, in assay [2], the “EC50 (nM), phagocytosis of A375 cells by primary human macrophages” value amounted to 0.458 nM. In [2], the “Max, fold increase in phagocytosis over baseline activity” value is 1.77 fold. Also, the binding result in assay [3] is recorded as “no binding (tested: 100 nM)”; in assay [4], “no binding (tested: 100 nM)”; with soluble human FcgR1, “binds”; in assay [5], “binds”; in assay [6] it was “binds”; with soluble human FcgR2B [7] it was “binds”.

B2: 3F9-22 hIgG1 LALAPS (antibody)
heavy: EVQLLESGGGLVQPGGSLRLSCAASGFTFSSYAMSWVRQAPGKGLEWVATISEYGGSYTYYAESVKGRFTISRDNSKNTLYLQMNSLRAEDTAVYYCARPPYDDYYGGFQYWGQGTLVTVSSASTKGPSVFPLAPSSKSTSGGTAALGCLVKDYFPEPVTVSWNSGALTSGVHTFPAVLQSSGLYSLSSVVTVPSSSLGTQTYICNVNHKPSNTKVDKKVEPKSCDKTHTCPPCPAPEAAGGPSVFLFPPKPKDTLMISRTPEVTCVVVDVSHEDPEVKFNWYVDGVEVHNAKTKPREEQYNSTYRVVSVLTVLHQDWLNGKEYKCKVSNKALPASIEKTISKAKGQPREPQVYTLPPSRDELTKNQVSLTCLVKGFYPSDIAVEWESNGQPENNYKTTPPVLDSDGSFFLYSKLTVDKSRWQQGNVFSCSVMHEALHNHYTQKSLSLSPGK
light: DIQLTQSPSSLSASVGDRVTITCRASKSVSSGGYSYMHWYQQKPGKAPKLLIYLASNLESGVPSRFSGSGSGTDFTLTISSVQPEDFATYYCQHNRELPVTFGQGTKLEIKRTVAAPSVFIFPPSDEQLKSGTASVVCLLNNFYPREAKVQWKVDNALQSGNSQESVTEQDSKDSTYSLSSTLTLSKADYEKHKVYACEVTHQGLSSPVTKSFNRGEC
notes: also called 3F9-22 LALAPS
On to B2, for which the “IC50 (nM), SIRPA downregulation on human monocyte-derived macrophages” value in assay [1] turned out to be 0.0447 nM. The “Max % DR, SIRPA, human monocyte-derived macrophages” value in [1] stood at 41.6%. For the same molecule, the binding result in assay [8] is recorded as “no binding (tested: 100 nM)”; in assay [9] it was “no binding (tested: 100 nM)”; in the assay with soluble human FcgR2B [10], “no binding (tested: 100 nM)”; in [3], “no binding (tested: 100 nM)”; in assay [4], “no binding (tested: 100 nM)”; with soluble human FcgR1, “binds”.
